Biological target: PP2A-B55 phosphatase (B55, A and C subunits) of Xenopus egg extracts (Xenopus (endogenous in egg extracts)) (UniProt Q7ZX64)
Assay: enzyme inhibition kinetics (dephosphorylation of p-S113-Arpp19); kinase inactivated interphase extracts diluted 1/50 to 1/200; substrate p-S113-Arpp19 120 to 2000 nM; FAM122A 50, 125 and 250 nM or Thio-S71-Arpp19 1, 2 and 3 nM; quantitative western blot; global fit, competitive mode

Row | Substance | Ki
1 | His-Xenopus FAM122A (wildtype) (natural protein) | 28.1 nM
2 | untagged thio-S71-phosphorylated Arpp19 (natural protein) | 0.22 nM

From publication PMC10943098
